In PMC12114846 (2025):

Target: IL-15 (Homo sapiens, UniProt P40933)
Sequence (P40933 49-162): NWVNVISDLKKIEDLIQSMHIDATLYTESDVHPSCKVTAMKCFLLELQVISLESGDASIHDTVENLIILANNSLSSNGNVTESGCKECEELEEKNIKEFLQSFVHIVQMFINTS

B1: rILR-Fc (IL-15Rα-Sushi-Fc) Sushi (protein)
chain: TRGITCPPPMSVEHADIWVKSYSLYSRERYICNSGFKRKAGTSSLTECVLNKATNVAHWTTPSLKCIRDPA
modifications: Fc fusion
Q: Which Kd does the source give for B1 here?
A: 0.24 nM
